Measured values taken from patent US9765346B2, “Biological methods for preparing a fatty dicarboxylic acid” (Verdezyne, Inc., priority 2011, dated 2017).

Molecular target: T1, Pox5 (Candida tropicalis, UniProt P08790)
T1 construct: made in house; host or cells: E. coli Rosetta II BL21, pET26b; crude cell lysate (10 ug per reaction)
Type: biochemical, Candida strain ATCC20336
Experimental: To express an enzyme, a colony from each transformation of Rosetta cells was used to start a 5 ml overnight culture of LB containing the antibiotics kanamycin (to select for pET26b) and chloramphenicol (to select for a second plasmid found in Rosetta II cells that mediates improved translation of eukaryotic proteins expressed in E. coli) grown at 37° C. The next morning, the overnight culture was used to seed 30 ml of LB containing kanamycin and chloramphenicol to an OD600 reading of 0.1. The 30 ml cultures were grown at 37° C. for 2 hours and then placed on ice for 10 minutes. To induce expression, isopropyl-beta-D-thiogalactopyranoside (IPTG) was added to the culture to a final concentration of 0.1 mM. In some cases induction was performed using Novagen Overnight Express Autoinduction System 1 (CAT#71300-3). The cells were then shaken at 15° C. overnight to express the acyl CoA oxidase.
To test the activity of the acyl CoA oxidase, cells from the overnight induction were pelleted at 1046×g at 4° C. in 50 ml conical tubes. The cell pellets were resuspended in 1 ml of 50 mM KPO4, pH 7.6, 50 μM FAD buffer and then transferred to a 2 ml centrifuge tube. A Misonix Sonicator 3000 (QSonica, Newtown, Conn.) was used to lyse the cells, which were sonicated at a power setting of 2 for 2 pulses of 20 seconds each. The lysates were placed on ice for 30 seconds in between each pulse. To obtain a supernatant, cell debris was pelleted at […] for 10 mins in a 4° C. microcentrifuge. The supernatant was transferred to a 1.5 ml centrifuge tube and Bradford assays (Thermoscientific) were performed on cell lysates according to manufacturer's specifications to determine protein concentration in preparation for the acyl-CoA oxidase assays. A Beckman Coulter DTX-800 Multimode Detector spectrophotometer was used for the assays. The spectrophotometer was set to read for 5 minutes at 500 nm, 30° C. Each reaction was 200 μl in volume and contained 10 μg of cell lysate in 50 mM KPO4, pH 7.6, […] BSA, 0.05% Triton X-100, 250 μM fatty acyl-coA substrate, 50 μM FAD, 10 U horseradish peroxidase, 25 mM p-hydroxybenzoic acid and 1 mM 4-aminoantipyrine. Fatty acyl-CoA substrates covered a range from hexanoyl CoA (six carbon chain length) to oleoyl CoA (eighteen carbon chain length).
Pox4 and Pox5 from Candida strain ATCC20336 were cloned into pET26b for expression in E. coli and assayed for acyl CoA oxidase activity in vitro. The activity profiles of the genetically modified Pox4 and Pox5 were compared to the activity profile of the wild type enzymes. To alter their substrate activity profile, site directed mutagenesis was performed on several locations in Pox4 and Pox5. Complementary primers encoding the point mutation(s) were used to amplify the coding sequences of Pox4 or Pox5 generating two to four PCR products that were then “stitched” together to regenerate the entire coding region using overlap extension PCR (FIG. 22). […] PCR was performed using oligonucleotides A and B to produce a product with overlap to a PCR product generated using oligonucleotides C and D. The A-B product was used as a primer for the C-D product, and vice versa, for overlap extension. Several mutagenic primer pairs, for example, like the B-C primer pair, were used to produce mutations at different locations that were “stitched” together, i.e. A-B, C-D, E-F, etc. to generate an intact, full length coding region. […]

[1] = wild type, expressed in E. coli

## Pox5: native acyl-CoA oxidase isozyme of Candida strain ATCC20336
FIG. 21, wild type
  activity on C6 and C8 substrates: low activity
  activity on substrates below C10: decrease in activity
Native isozyme
  substrate specificity: narrow substrate specificity
[1]
  activity on a C6 substrate: not very active
  substrates on which active: C8 all the way to C18:1
